Test results: publication PMC2599807 (Biochemistry, 2008)

Biological target: the molecule itself
Test: SEC + other: dynamic light scattering

B1: O. brevis BxmR (CPx-ATPase metal-regulated repressor), wild-type (natural protein, Oscillatoria brevis, UniProt Q76L30 1-136, looked up)
chain: MSPKSAVNGAISQPHQENDTPTCDRAHLVDCSRVGDIQTQVLNTAKAQRMAEFFSLLGDANRLRLVSVLAKQELCVCDLAATLGMSESAVSHQLRAMRAMRLVSYRKVGRQVFYSLLDRHVLELYRAVAEHLDEES
stoichiometry N: 2
